According to paper PMC6606567, “Molecular tuning of farnesoid X receptor partial agonism” (Nature Communications, 2019):
Each block holds one molecule with its values, some of them ahead of it.

How the values were obtained:
[1] = target: farnesoid X receptor ligand binding domain (FXR-LBD; isoform 4; amino acids 244-472) (human); assay: NMR titration; 1H/13C-HSQC of Leu-labeled NCoR and NCoA peptides (50 µM) with FXR-LBD (50 µM) and CDCA (250 µM); 298 K, 50 mM Tris pH 8.3, 500 mM NaCl, 2 mM TCEP; populations from signal intensities
[2] = target: farnesoid X receptor ligand binding domain (FXR-LBD; isoform 4; amino acids 244-472) (human); assay: NMR titration; 1H/13C-HSQC of Leu-labeled NCoR and NCoA peptides (50 µM) with FXR-LBD (50 µM) and GW4064 (250 µM); 298 K, 50 mM Tris pH 8.3, 500 mM NaCl, 2 mM TCEP; populations from signal intensities
[3] = target: farnesoid X receptor ligand binding domain (FXR-LBD; isoform 4; amino acids 244-472) (human); assay: NMR titration; 1H/13C-HSQC of Leu-labeled NCoR and NCoA peptides (50 µM) with FXR-LBD (50 µM) and fexaramine (250 µM); 298 K, 50 mM Tris pH 8.3, 500 mM NaCl, 2 mM TCEP; populations from signal intensities
[4] = target: farnesoid X receptor ligand binding domain (FXR-LBD; isoform 4; amino acids 244-472) (human); assay: NMR titration; 1H/13C-HSQC of Leu-labeled NCoR and NCoA peptides (50 µM) with FXR-LBD (50 µM) and partial agonist 1 (250 µM); 298 K, 50 mM Tris pH 8.3, 500 mM NaCl, 2 mM TCEP; populations from signal intensities
[5] = target: farnesoid X receptor ligand binding domain (FXR-LBD; isoform 4; amino acids 244-472) (human); assay: NMR titration; 1H/13C-HSQC of Leu-labeled NCoR and NCoA peptides (50 µM) with FXR-LBD (50 µM) and ivermectin (250 µM); 298 K, 50 mM Tris pH 8.3, 500 mM NaCl, 2 mM TCEP; populations from signal intensities
[6] = target: farnesoid X receptor ligand binding domain (FXR-LBD; isoform 4; amino acids 244-472) (human); assay: NMR titration; HSQC of the quaternary mixture of FXR-LBD, antagonist guggulsterone, labeled co-activator (NCoA) and co-repressor (NCoR) peptides; protein:peptide:ligand 50:50:250 µM, 298 K
[7] = target: the molecule itself; assay: crystal structure; FXR244-472 (75 µM) incubated with 150 µM partial agonist 1 (DM175), concentrated to 375 µM, then 750 µM NCoA-2 740-752 peptide; hanging drop, 4 °C, 300 mM MgCl2, 100 mM Bis-Tris pH 7, 15-20% PEG 3350, micro seeding

free co-repressor/free co-activator ratio (part of free co-repressor) [1]: 87
free co-repressor/free co-activator ratio (part of free co-repressor) [2]: 86
free co-repressor/free co-activator ratio (part of free co-repressor) [3]: 77
free co-repressor/free co-activator ratio (part of free co-repressor) [4]: 30
free co-repressor/free co-activator ratio (part of free co-repressor) [5]: 25
free co-repressor/free co-activator ratio (part of free co-repressor) [6]: 15
Molecule: nuclear receptor co-repressor 1 peptide (NCoR-1, residues 2256-2278)

free co-repressor/free co-activator ratio (part of free co-activator) [1]: 13
free co-repressor/free co-activator ratio (part of free co-activator) [2]: 14
free co-repressor/free co-activator ratio (part of free co-activator) [3]: 23
free co-repressor/free co-activator ratio (part of free co-activator) [4]: 70
free co-repressor/free co-activator ratio (part of free co-activator) [5]: 75
free co-repressor/free co-activator ratio (part of free co-activator) [6]: 85
Molecule: Nuclear receptor co-activator 2 peptide (NCoA-2 740-752)

B1: farnesoid X receptor ligand binding domain (FXR-LBD; isoform 4; amino acids 244-472) (domain or fragment, human)
chain: ELTPDQQTLLHFIMDSYNKQRMPQEITNKILKEEFSAEENFLILTEMATNHVQVLVEFTKKLPGFQTLDHEDQIALLKGSAVEAMFLRSAEIFNKKLPSGHSDLLEERIRNSGISDEYITPMFSFYKSIGELKMTQEEYALLTAIVILSPDRQYIKDREAVEKLQEPLLDVLQKLCKIHQPENPQHFACLLGRLTELRTFNHHHAEMLMSWRVNDHKFTPLLCEIWDVQ
notes: numbers count on: isoform 4; also called FXR244-472; NR1H4; source: E. coli BL21(DE3) gold, purified (NiNTA, Tev cleavage, Superdex 200); not shown: His6, N-terminal, cleaved
binding result [7]: binds
